In paper PMC2714321, “DNA binding kinetics of two response regulators, PlnC and PlnD, from the bacteriocin regulon of Lactobacillus plantarum C11”:

T1: f-PlnD (Lactobacillus plantarum C11, UniProt Q48830 1-247)
T1 sequence: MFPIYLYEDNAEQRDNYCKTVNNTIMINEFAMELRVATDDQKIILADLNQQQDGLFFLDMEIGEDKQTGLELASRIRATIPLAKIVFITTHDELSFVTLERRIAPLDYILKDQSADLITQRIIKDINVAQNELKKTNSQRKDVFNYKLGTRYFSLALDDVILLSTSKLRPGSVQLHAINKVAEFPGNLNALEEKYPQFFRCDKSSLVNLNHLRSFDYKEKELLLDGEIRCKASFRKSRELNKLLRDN

T2: f-PlnC (Lactobacillus plantarum C11, UniProt Q48829 1-247)
T2 sequence: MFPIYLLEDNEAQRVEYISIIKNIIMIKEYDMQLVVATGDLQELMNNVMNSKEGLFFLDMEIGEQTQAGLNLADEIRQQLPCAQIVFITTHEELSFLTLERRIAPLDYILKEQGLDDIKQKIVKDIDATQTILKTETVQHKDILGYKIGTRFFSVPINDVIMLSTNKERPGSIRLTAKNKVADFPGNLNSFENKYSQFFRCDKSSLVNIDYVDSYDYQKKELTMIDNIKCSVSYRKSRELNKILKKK


Key:
Details in all cases: protein: native; tags: N-terminal FLAG; chain copies: 2; label: biotin on forward strand; blunt
f-PlnD = target: T1, f-PlnD; assay: SPR; site 1 (KD1), heterogeneous ligand model; SPR (Biacore 3000, SA chip): 20 mM Tris-HCl pH 8.0, 100 mM NaCl, 5 mM MgCl2, 1 mM EDTA, 0.025% Triton X-100, 25°C; signals corrected by subtraction of control DNA (S8/rc) reference cell, no outcome reported for it
f-PlnC [1] = target: T2, f-PlnC; assay: as above
f-PlnC [2] = target: T2, f-PlnC; assay: SPR; site 1 (KD1), ka fitted locally; SPR (Biacore 3000, SA chip): 20 mM Tris-HCl pH 8.0, 100 mM NaCl, 5 mM MgCl2, 1 mM EDTA, 0.025% Triton X-100, 25°C; signals corrected by subtraction of control DNA (S8/rc) reference cell, no outcome reported for it
f-PlnC [3] = target: T2, f-PlnC; assay: SPR; single site, Langmuir 1:1 model; SPR (Biacore 3000, SA chip): 20 mM Tris-HCl pH 8.0, 100 mM NaCl, 5 mM MgCl2, 1 mM EDTA, 0.025% Triton X-100, 25°C; signals corrected by subtraction of control DNA (S8/rc) reference cell, no outcome reported for it
f-PlnC [4] = target: T2, f-PlnC; assay: SPR; site 1 (KD1), heterogeneous ligand model; Discussion gives 1e-7 range; SPR (Biacore 3000, SA chip): 20 mM Tris-HCl pH 8.0, 100 mM NaCl, 5 mM MgCl2, 1 mM EDTA, 0.025% Triton X-100, 25°C; signals corrected by subtraction of control DNA (S8/rc) reference cell, no outcome reported for it

Binder | Kd (f-PlnD) | Kd (f-PlnC [1]) | other results
PplnJ (dsDNA) DNA 1: ACTTTCAAGTTACGTTAAATCGATTAAATAGTACGATAACAAATTTAAAA DNA 2: TTTTAAATTTGTTATCGTACTATTTAATCGATTTAACGTAACTTGAAAGT | 12 µM |  | 
PplnE (dsDNA) DNA 1: ATTGGTATTTGACGTTAAGAGAACGTTTTTTTACTTTTATAATTTTTTCA DNA 2: TGAAAAAATTATAAAAGTAAAAAAACGTTCTCTTAACGTCAAATACCAAT |  | 0.21 µM | 
PplnG (dsDNA) DNA 1: GCCTGATGAGGACATTTATCATAAAATTATGTACGTTAATAGATAGTTGG DNA 2: CCAACTATCTATTAACGTACATAATTTTATGATAAATGTCCTCATCAGGC | 14 µM |  | Kd (f-PlnC [2]): 0.17 µM
PplnM (dsDNA) DNA 1: TGAATTATTGTACGATAATATCTAAAAATATTACGTTTATAAAAATATCG DNA 2: CGATATTTTTATAAACGTAATATTTTTAGATATTATCGTACAATAATTCA | 0.56 µM | 0.38 µM | 
PplnAΔL (dsDNA) DNA 1: CATGGTGATTTTAAAATTTATTTAAAAAATGTACGTTAATAGAAATAATT DNA 2: AATTATTTCTATTAACGTACATTTTTTAAATAAATTTTAAAATCACCATG |  |  | Kd (f-PlnC [3]): 0.3 µM
PplnA (dsDNA) DNA 1: CATGGTGATTCACGTTTAAATTTAAAAAATGTACGTTAATAGAAATAATT DNA 2: AATTATTTCTATTAACGTACATTTTTTAAATTTAAACGTGAATCACCATG | 1.5 µM |  | Kd (f-PlnC [4]): 1.5 µM
